± gives the standard deviation of the averaged measurements.
Tested on: Saccharomyces cerevisiae
Assay: protein stability index of tFT-peptide fusion (C-terminal peptide) (PSI (0-1 scale)); higher = more stable (slower turnover)
Conditions: temperature: 30 C
Description: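 MPS profiling in S. cerevisiae of the yeast C-terminome library: the last 12 aa of each annotated ORF are fused to the C-terminus of a sfGFP-mCherry timer, after a GGGS linker. Cells are FACS-sorted into 8 mCherry/sfGFP bins and deep-sequenced. PSI runs from 0 (unstable) to 1 (stable); wild type and das1Δ backgrounds, two technical replicates each.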

[1] = genetic background: das1 deletion

Sequence | protein stability index [1] | protein stability index (genetic background: wild type)
DSPDFKKHLEKK [RSM10 C-terminal 12 aa] | 0.684 ± 0.025 | 0.721 ± 0.046
SKNVPALHMGGL [PBS2 C-terminal 12 aa] | 0.6847 ± 0.0027 | 0.6721 ± 0.0054
SRIKNACLHRMN [RRN7 C-terminal 12 aa] | 0.6966 ± 0.0047 | 0.681 ± 0.035
ELTRLVDSKRKR [HFA1 C-terminal 12 aa] | 0.717 ± 0.045 | 0.667 ± 0.011
TTWKTTCKIFGE [YBL055C C-terminal 12 aa] | 0.693 ± 0.019 | 0.712 ± 0.008
DNGELDLSGFNI [MED2 C-terminal 12 aa] | 0.696 ± 0.013 | 0.734 ± 0.073
RRTQAQSRSRKA [PKR1 C-terminal 12 aa] | 0.675 ± 0.0088 | 0.706 ± 0.037
CRKGVSHKGVCH [YBL111C C-terminal 12 aa] | 0.721 ± 0.026 | 0.71 ± 0.035
FTDDSGTIKQEE [CMR1 C-terminal 12 aa] | 0.713 ± 0.0073 | 0.703 ± 0.026
LDDNELFKNVWS [AGE2 C-terminal 12 aa] | 0.728 ± 0.017 | 0.713 ± 0.017
AKPALFERFINA [MCD1 C-terminal 12 aa] | 0.6979 ± 0.0043 | 0.665 ± 0.011
FVVKEGLLKNRK [GTF1 C-terminal 12 aa] | 0.701 ± 0.027 | 0.7 ± 0.024
YDLQALFKYFFS [ADY3 C-terminal 12 aa] | 0.691 ± 0.011 | 0.64 ± 0.022
SKPALGSCLYEL [GAL1 C-terminal 12 aa] | 0.6989 ± 0.0023 | 0.687 ± 0.012
FTNEIINKLSTM [IDH1 C-terminal 12 aa] | 0.692 ± 0.052 | 0.5514 ± 0.0019
VMDDIISELTNE [KRE28 C-terminal 12 aa] | 0.713 ± 0.019 | 0.687 ± 0.046
ESNSALDFTRLA [SSU1 C-terminal 12 aa] | 0.707 ± 0.025 | 0.712 ± 0.059

Sequence | protein stability index [1] | protein stability index (genetic background: wild type)
EKDNSQKIEAKK [SDH4 C-terminal 12 aa] | 0.69 ± 0.012 | 0.697 ± 0.11
TVETLLKLFTKS [SLD7 C-terminal 12 aa] | 0.6879 ± 0.0025 | 0.69379 ± 0.00044
FVLKCIKDMYAK [IRC25 C-terminal 12 aa] | 0.682 ± 0.018 | 0.681 ± 0.017
LQSLPISSWRCT [YBR220C C-terminal 12 aa] | 0.701 ± 0.0098 | 0.6711 ± 0.003
NDDSKDEVDIIP [YPR196W C-terminal 12 aa] | 0.69 ± 0.013 | 0.698 ± 0.015
SLMIFSSFFLYN [YOR139C C-terminal 12 aa] | 0.6872 ± 0.001 | 0.479 ± 0.02
RIEKYSDDVIPK [RIM13 C-terminal 12 aa] | 0.695 ± 0.018 | 0.722 ± 0.0089
AKDIKGYGTQKI [PRE4 C-terminal 12 aa] | 0.65979 ± 0.00058 | 0.695 ± 0.022
GWQTGALIIKKH [SAF1 C-terminal 12 aa] | 0.729 ± 0.0083 | 0.763 ± 0.11
LIALNRYIEDLH [MRP20 C-terminal 12 aa] | 0.6999 ± 0.0024 | 0.695 ± 0.007
NDNHNPFYIREE [CDC26 C-terminal 12 aa] | 0.723 ± 0.021 | 0.705 ± 0.049
IDKLRNSFYKTI [SMU2 C-terminal 12 aa] | 0.687 ± 0.028 | 0.515 ± 0.028
EAADEADEADEE [RPS9A C-terminal 12 aa] | 0.6914 ± 0.0068 | 0.747 ± 0.017
EIMLGKNLLITS [YNL109W C-terminal 12 aa] | 0.619 ± 0.0087 | 0.503 ± 0.028
KKKGLFGRMKKK [YMR295C C-terminal 12 aa] | 0.719 ± 0.028 | 0.69 ± 0.067
DDEAGALIPENC [SOL4 C-terminal 12 aa] | 0.705 ± 0.03 | 0.688 ± 0.0086
DHMQLTGRILVL [YJL132W C-terminal 12 aa] | 0.58733 ± 0.00058 | 0.5716 ± 0.0024

From the supplement of paper PMC10724198
